Numbering of substitutions follows the chain as printed.
B1: D_3_114_5 (designed binder)
chain: SGSGSSDFEFKMLATWAKMAITAAERAAGTDPELQEMVALIKKELEQAERTFRNGDKSEAMRQLEFVLTAANAVLAVALAANMAGTDPELQEMVDRILKQLKEAIRTFQNGDQEEAEDQLLFVLAAATAVAVVAWAKILAGTDPELQEMVKQILEELKQAIETWARGDKEKAATQLLFVMWAAHAVAAIALAANVAGTDPRLQQQVKEILEKLKEAIETFQKGDEEQAFRQLAEVLAEAMLVAIRALLTN
notes: Designed homodimer subunit, after TEV cleavage
B2: D13_H11A (designed binder)
chain: SGSGSEEKEWQAMTLHLIFAIKILKEMLEEDPNDEEIKKILELLWQISKTQQDDPHNEEQKEWLMLLLLIIMALRLVQEMLKEDPNDEEIEKILELLKQILRTLREDPHNEEQKEWLILLLIIILLLDSVQEMLKEDPNDEEIEKILELLKQILRTLREDPHNEEQKQWLIQLINALILLLFIQEKLKEDPNDEEAEEELERLKEQLRRLRE
notes: as for B1
B3: D13_H11B (designed binder)
chain: B2 chain with L15A, F19Y, M65I, L69I, M72L, I118S, L121F, L125A
notes: as for B1
B4: D13_H11C (designed binder)
chain: B2 chain with Q11A, A12I, L15A, F19Y, I23V, L69G, M72L, I118A, L121V
notes: as for B1
B5: JD (designed binder)
chain: SGSSDEEYARMSAELAEEAAKEALEQAKREGDEDARRVAEELEKQAEEARRKKDFDLANLVLMAAIILLLALIILELAKKAGNEQMEASGLSLLATAALLAAAGGENSEDARKALEAALRLAERATEVLEKIAKKGETALEKAIAAGTLVMLIQIIIQIAELLSKLGDTEEAKKVLDIAIELIKRVTEILERIAKKADTDILAQAAAGHLIYLIQLLMQISILLRRLGNIDEAFKVLEEARELAERVRELLERIAKNSDK
notes: as for B1
B6: D_3_114_4 (designed binder)
chain: SGSGSSDEEFKFLATMAKMAITAAERAAGTDPELQEMVALIKKELEQAERTFRNGDKSEAQRQLWFVWVAALAVAAVALAANAAGTDPELQEMVDRILKQLKEAIRTFQNGDQEEAETQLRFVLMAAAAVAVVALARLWAGTDPELQEMVKQILEELKQAIETFARGDKEKALTQLLFVLWAAHAVLWIAIAANLAGTDPRLQQQVKEILEKLKEAIETFQKGDEEQAFRQLAEVLAEAVLVALRARKTN
notes: as for B1
B7: JB (designed binder)
chain: SGSTEELKKVLEDVRELAERAKESTDPEEALIIAILVIIRALAAVALDPSEEASTAVKIAIKIAEEVAKRVSDSELSASIALLIANLALVAAKAAGDEELSKLALRLAKLAAELAKDALRIAEERGNAWQAAIAVGVVVMVATILLALAKQLGSEEALKEALEVAEEAARLAKRQLELAERVGDPIVALAAVGHVFMVAMLLAQIARESGSEEAKERAKRVAEEAEELAERVYELMRREGK
notes: as for B1
B8: tj79C2-H121B (designed binder)
chain: SGSGSREDELLARLLLLLAELAAERADIAAERTGDPRVRELARELKRLAQEAAEEVKRDPSSSDVLMALLLIIMAIEAAVEALEAAERTGDPEVRELARELVRLAVEAAEEVQRNPSSSDVWWALHLILFAIQLAVRALEAAERTGDPEVRELARELVRLAVEAAEEVQRNPSSKEVDMALLLILIAILEAVLSLLRAERSGDPEKREKARERVREAVERAEEVQRDPSGW
notes: as for B1
B9: tj79C2-H121C (designed binder)
chain: B8 chain with L16I, A68L, I73V, M74L, E77Q, W122F, W123M, R137Q, V168L, D178Q
notes: as for B1
B10: tj79C2-H125A (designed binder)
chain: SGSGSREDELWARYTLLLAELAAERADIAAERTGDPRVRELARELKRLAQEAAEEVKRDPSSSDVYLALILIVMAIYMAVLALEAAERTGDPEVRELARELVRLAVEAAEEVQRNPSSSDVNKALLLIVHAIMAAVAALEAAERTGDPEVRELARELVRLAVEAAEEVQRNPSSKEVDMALLLIQIAILEAVLSLLRAERSGDPEKREKARERVREAVERAEEVQRDPSGW
notes: as for B1
B11: JC (designed binder)
chain: SGSTEKLKKVLERVRELAERAKESTSPEEALIIALLVSSLAIAAVMLDPSEEASTAVKIAIKIAEEVAKRVSDSQLSASIALSIASLALVAAEAAGDEELSKLALRLAKLAAELAKDALRIAEERGNAIDAAIAVGIVVMVAAILLQLAKLLGSEEALKEALEVAEEAARLAKRVLELAERVGDPQVALAAVGHVQMVAILLAQIARESGSEEAKERAERVARESMELAERVLELMRREGKW
notes: as for B1
B12: D_3_114_3 (designed binder)
chain: SGSGSSDELFKWLATEAKMAITAAERLAGTDPELQEMVALIKKELEQAERTFRNGDKSEAMRQLLFVLMAANAVAAVAAAANMAGTDPELQEMVDRILKQLKEAIRTFQNGDQEEAMTQLAFVLLAAAAVFVVAWALILAGTDPELQEMVKQILEELKQAIETFARGDKEKALTQLLFVLWAAHAVAWIALAALLAGTDPRLLQQVKEILEKLKEAIETFQKGDEEQAFRQLAEVLAEAILVAIRAAKTN
notes: as for B1
B13: JIa (designed binder)
chain: SGSSEELARESAEAAWRLAQAGTRAALAAIRGDLKELAEALIELARAVQELARVAKEYGNDELAKTAALLAAHVALLAILVLIRAIKEGDDEVRELAKTAIKLASTAAKIVLDALPTAEEVRQITLLAKLAEEAADKKNEDSALAVGIAAAAVLAALLALEAAQKAGIEEAEKGARLLLKLAMDAARKKNPEEALAVLNAALDVSIALRLLQSAKRAGSEETRKLAEEMLRQALERARK
notes: as for B1
B14: JId (designed binder)
chain: B13 chain with G22A, A25L, A26V, A29V, L37I, L69F, L80I, A155L
notes: as for B1
B15: JIe (designed binder)
chain: B13 chain with G22A, A25I, A26M, A29V, L37I, L69F, L80I, A151M, A155I, L198F
notes: as for B1
B16: JIc (designed binder)
chain: B13 chain with G22A, A25L, A26V, A29L, L37V, L69W, L76M, L80Y, A151I, A155I
notes: as for B1
B17: tj79C2-H132A (designed binder)
chain: SGSGSREDELRARLLILLAELAAETLDIIAERTGDPRVRELARELIRLLQEAAEEVKRDPSSSDVNEALKLIVEAIFMAIFILLFAEQTGDPEVRELARELVRLAVEAAEEVQRNPSSSDVNEALKLIIQAIILAVHALLAAEKTGDPEVRELARELVRLAVEAAEEVQRNPSSKEVDMALLLILIAILEAVLSLLRAQRSGDPEKREKARERVREAVERAEEVQRDPSGW
notes: as for B1
B18: JE (designed binder)
chain: SGSGSSDELAALFLIISAKSQAWQAQSAAERTGDPRVRELARELKRLAQEAAEEVKRDPSSSEVNKNLQLISMAIALAVLALQLARKAGDEEARDIAREAVEVAVRAAQLILEGRDEQRAQTLFLIAHALLMAVMAARLGNSEVAELAVKVLRLAKELEKLLPSEIALFVVLMIALAALSAAMAASGGQEDYARDALRRLEEAIREAEENRSKESLEKVIEEAIEAMLQANRAQTGG
notes: as for B1
B19: SP3x (designed binder)
chain: SGSSEELARESAEAAWRLAQASTRATLAMIRGDLKELAEALIELARAVQELARVAKEYGNDELAKTAALLAAHVAMLAIWVLIRAIKEGDDEVRELAKTAIKLASTAAKIVLDALPTAEEVRQITLLAKLAEEAADKKNEDSALAVGIAAIAVIIALWALEAAQKAGIEEAEKGARLLLKLAMDAARKKNPEEALAVLNAALDVSIALQLLQSAKRAGSEETRKLAEEMLRQALERARKKN
notes: as for B1
B20: D_3_114_2 (designed binder)
chain: SGSGSSDEEFKWLATWAKMAITAAERAAGTDPELQEMVALIKKELEQAERTFRNGDKSEAWRQLVFVAIAAAAVLAVALAANAAGTDPELQEMVDRILKQLKEAIRTFQNGDQEEAETQLFFVLLAAAAVAVVALALIWAGTDPELQEMVKQILEELKQAIETFARGDKEKALTQLLFVLWAAHAVLWIAIAANTAGTDPRLQQQVKEILEKLKEAIETFQKGDEEQAFRQLAEVLAEAVLVALRAMKTN
notes: as for B1
B21: D13_H60A (designed binder)
chain: SGSGSEEKEWMLLTAMLIMAIKTLKEMLEEDPNDEEIKKILELLWQISKTQQDDPHNEEQKEWLHLLLIIIMALRLVQEMLKEDPNDEEIEKILELLKQILRTLREDPHNEEQKEWLILLFIIIALLDSVQEMLKEDPNDEEIEKILELLKQILRTLREDPHNEEQKQWLIQLINALILLLFIQEKLKEDPNDEEAEEELERLKEQLRRLRE
notes: as for B1
B22: D13_H60B (designed binder)
chain: B21 chain with M11Q, A15W, M16L, A20I, L68A, I69A, M72L, E115A, I118L, F121V
notes: as for B1
B23: JA (designed binder)
chain: SGSGSWEEEAADKAIEIAEKVFRLKKSGTSEDEIAEEVAREISEVIRTLKESGSSEEVIALALLMIILGVVMALIANGVSIREQLDISATILYEVAREQGNEEALEAIEEITRLAEEIKEEGGSILAAHILTMAGLLVAALPSEEAAEVAKEIAKAVKAAVEAEKDGKSDEAMLALIRLILAIMAALFNRSKYSLEMVRRIAKEAEQLAEDAREGK
notes: as for B1

Biological target: the molecule itself
Assay: size-exclusion chromatography, self-association (homodimer)
Protocol: FIG. 7. Size exclusion chromatography (SEC) traces of purified SP apo-proteins. Proteins were injected as 0.5 mL aliquots onto a Superdex™ 200 Increase 10/300 GL column (Cytiva Life Sciences). The narrow, isolated peaks indicate that the samples contain monodisperse protein. Running buffer was 150 mM NaCl, 10 mM Tris at pH 8. Proteins were purified by Ni-NTA and one round of SEC prior to collecting the data shown.
Proteins were purified by Ni-NTA and size-exclusion chromatography (SEC) (FIG. 7). […] A slightly lower predicted radius of gyration (Rg) value compared to experimental SAXS data is likely due to a dense hydration shell around the highly charged SP proteins (Svergun et al. 1998; Kim et al. 2016). The far ultraviolet (UV) circular dichroism (CD) spectra of three SP proteins that expressed in high yield (≥140 mg/L) show the proteins are highly α-helical with and without the synthetic Chl a derivative, Zn pheophorbide a methyl ester (ZnPPaM). Thermal denaturation curves monitored by the CD signal at 222 nm indicate that all three proteins are highly thermostable in the apo- and holo-states (FIG. 2).

Protein | binding result
B1 | binds
B2 | binds
B3 | binds
B4 | binds
B5 | binds
B6 | binds
B7 | binds
B8 | binds
B9 | binds
B10 | binds
B11 | binds
B12 | binds
B13 | binds
B14 | binds
B15 | binds
B16 | binds
B17 | binds
B18 | binds
B19 | binds
B20 | binds
B21 | binds
B22 | binds
B23 | binds
